In US20220298218A1 (ANTAG THERAPEUTICS, published 2022):
*1 amine or outer side, *2 acyl side, *3 side chain or, on linkers, in order; H or OH if unused. Where no end group is shown, it is not given here. Side-chain parts run from the residue outwards. The star is where a group is joined. C18 diacid = O=C(O)CCCCCCCCCCCCCCCCC(=O)*; C16 diacid = O=C(O)CCCCCCCCCCCCCCC(=O)*; γGlu = O=C(O)[C@H](CCC(=O)[*:2])N[*:1]; Stearoyl = CCCCCCCCCCCCCCCCCC(=O)*; AEEA = NCCOCCOCC(=O)O

Biological target: T1, human GIP receptor (human, UniProt P48546 22-466)
T1 sequence (looked up): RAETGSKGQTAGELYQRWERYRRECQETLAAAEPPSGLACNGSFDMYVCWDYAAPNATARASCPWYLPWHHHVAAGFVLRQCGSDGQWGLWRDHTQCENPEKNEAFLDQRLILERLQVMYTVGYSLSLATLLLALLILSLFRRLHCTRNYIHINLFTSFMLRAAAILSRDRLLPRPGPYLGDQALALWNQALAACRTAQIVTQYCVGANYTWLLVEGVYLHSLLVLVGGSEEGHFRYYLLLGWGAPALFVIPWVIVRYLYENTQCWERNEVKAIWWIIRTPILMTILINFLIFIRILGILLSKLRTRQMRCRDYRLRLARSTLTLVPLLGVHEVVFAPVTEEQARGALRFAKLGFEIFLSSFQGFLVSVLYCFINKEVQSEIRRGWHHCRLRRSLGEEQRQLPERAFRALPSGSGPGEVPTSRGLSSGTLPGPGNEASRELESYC
Test: cell-based or functional assay

B1: AT549 (peptide)
peptide: EGTFISDYSIAMDKIHQK([AEEA-AEEA-γGlu-C18 diacid])DFVNWLLAQKGKKNDW-NH2
modifications: N-terminus assumed
SMILES: CC[C@H](C)[C@H](NC(=O)[C@H](CO)NC(=O)[C@H](Cc1ccc(O)cc1)NC(=O)[C@H](CC(=O)O)NC(=O)[C@H](CO)NC(=O)[C@@H](NC(=O)[C@H](Cc1ccccc1)NC(=O)[C@@H](NC(=O)CNC(=O)[C@@H](N)CCC(=O)O)[C@@H](C)O)[C@@H](C)CC)C(=O)N[C@@H](C)C(=O)N[C@@H](CCSC)C(=O)N[C@@H](CC(=O)O)C(=O)N[C@@H](CCCCN)C(=O)N[C@H](C(=O)N[C@@H](Cc1c[nH]cn1)C(=O)N[C@@H](CCC(N)=O)C(=O)N[C@@H](CCCCNC(=O)COCCOCCNC(=O)COCCOCCNC(=O)CC[C@H](NC(=O)CCCCCCCCCCCCCCCCC(=O)O)C(=O)O)C(=O)N[C@@H](CC(=O)O)C(=O)N[C@@H](Cc1ccccc1)C(=O)N[C@H](C(=O)N[C@@H](CC(N)=O)C(=O)N[C@@H](Cc1c[nH]c2ccccc12)C(=O)N[C@@H](CC(C)C)C(=O)N[C@@H](CC(C)C)C(=O)N[C@@H](C)C(=O)N[C@@H](CCC(N)=O)C(=O)N[C@@H](CCCCN)C(=O)NCC(=O)N[C@@H](CCCCN)C(=O)N[C@@H](CCCCN)C(=O)N[C@@H](CC(N)=O)C(=O)N[C@@H](CC(=O)O)C(=O)N[C@@H](Cc1c[nH]c2ccccc12)C(N)=O)C(C)C)[C@@H](C)CC
  cAMP agonism % Emax: 0%
  cAMP antagonism: 200 nM
  cAMP antagonism % inhib: 80%
  cAMP antagonism pIC50: 6.7

B2: AT545 (peptide)
peptide: EGTFISDYSIAMDKIK([AEEA-AEEA-γGlu-C18 diacid])QQDFVNWLLAQKGKKNDW-NH2
modifications: N-terminus assumed
SMILES: CC[C@H](C)[C@H](NC(=O)[C@H](CO)NC(=O)[C@H](Cc1ccc(O)cc1)NC(=O)[C@H](CC(=O)O)NC(=O)[C@H](CO)NC(=O)[C@@H](NC(=O)[C@H](Cc1ccccc1)NC(=O)[C@@H](NC(=O)CNC(=O)[C@@H](N)CCC(=O)O)[C@@H](C)O)[C@@H](C)CC)C(=O)N[C@@H](C)C(=O)N[C@@H](CCSC)C(=O)N[C@@H](CC(=O)O)C(=O)N[C@@H](CCCCN)C(=O)N[C@H](C(=O)N[C@@H](CCCCNC(=O)COCCOCCNC(=O)COCCOCCNC(=O)CC[C@H](NC(=O)CCCCCCCCCCCCCCCCC(=O)O)C(=O)O)C(=O)N[C@@H](CCC(N)=O)C(=O)N[C@@H](CCC(N)=O)C(=O)N[C@@H](CC(=O)O)C(=O)N[C@@H](Cc1ccccc1)C(=O)N[C@H](C(=O)N[C@@H](CC(N)=O)C(=O)N[C@@H](Cc1c[nH]c2ccccc12)C(=O)N[C@@H](CC(C)C)C(=O)N[C@@H](CC(C)C)C(=O)N[C@@H](C)C(=O)N[C@@H](CCC(N)=O)C(=O)N[C@@H](CCCCN)C(=O)NCC(=O)N[C@@H](CCCCN)C(=O)N[C@@H](CCCCN)C(=O)N[C@@H](CC(N)=O)C(=O)N[C@@H](CC(=O)O)C(=O)N[C@@H](Cc1c[nH]c2ccccc12)C(N)=O)C(C)C)[C@@H](C)CC
  cAMP agonism % Emax: 0%
  cAMP antagonism: 17.8 nM
  cAMP antagonism % inhib: 77%
  cAMP antagonism pIC50: 7.8

B3: AT547 (peptide)
peptide: EGTFISDYSIAMDKIKQQDFVNWLLAQKGKKNDW
HELM: PEPTIDE1{E.G.T.F.I.S.D.Y.S.I.A.M.D.K.I.K.Q.Q.D.F.V.N.W.L.L.A.Q.K.G.K.K.N.D.W}|PEPTIDE2{[CCCCCCCCCCCCCCCCCC(=O)[*:2]].[gGlu].[gGlu]}$PEPTIDE1,PEPTIDE2,16:R3-3:R2$$$V2.0; N-terminus assumed
SMILES: CCCCCCCCCCCCCCCCCC(=O)N[C@@H](CCC(=O)N[C@@H](CCC(=O)NCCCC[C@H](NC(=O)[C@@H](NC(=O)[C@H](CCCCN)NC(=O)[C@H](CC(=O)O)NC(=O)[C@H](CCSC)NC(=O)[C@H](C)NC(=O)[C@@H](NC(=O)[C@H](CO)NC(=O)[C@H](Cc1ccc(O)cc1)NC(=O)[C@H](CC(=O)O)NC(=O)[C@H](CO)NC(=O)[C@@H](NC(=O)[C@H](Cc1ccccc1)NC(=O)[C@@H](NC(=O)CNC(=O)[C@@H](N)CCC(=O)O)[C@@H](C)O)[C@@H](C)CC)[C@@H](C)CC)[C@@H](C)CC)C(=O)N[C@@H](CCC(N)=O)C(=O)N[C@@H](CCC(N)=O)C(=O)N[C@@H](CC(=O)O)C(=O)N[C@@H](Cc1ccccc1)C(=O)N[C@H](C(=O)N[C@@H](CC(N)=O)C(=O)N[C@@H](Cc1c[nH]c2ccccc12)C(=O)N[C@@H](CC(C)C)C(=O)N[C@@H](CC(C)C)C(=O)N[C@@H](C)C(=O)N[C@@H](CCC(N)=O)C(=O)N[C@@H](CCCCN)C(=O)NCC(=O)N[C@@H](CCCCN)C(=O)N[C@@H](CCCCN)C(=O)N[C@@H](CC(N)=O)C(=O)N[C@@H](CC(=O)O)C(=O)N[C@@H](Cc1c[nH]c2ccccc12)C(=O)O)C(C)C)C(=O)O)C(=O)O
  cAMP agonism % Emax: 0%
  cAMP antagonism: 7.94 nM
  cAMP antagonism % inhib: 100%
  cAMP antagonism pIC50: 8.1

B4: AT548 (peptide)
peptide: EGTFISDYSIAMDKIHQK([AEEA-AEEA-γGlu-C18 diacid])DFVNWLLAQKGKKNDW-OH
modifications: N-terminus assumed
SMILES: CC[C@H](C)[C@H](NC(=O)[C@H](CO)NC(=O)[C@H](Cc1ccc(O)cc1)NC(=O)[C@H](CC(=O)O)NC(=O)[C@H](CO)NC(=O)[C@@H](NC(=O)[C@H](Cc1ccccc1)NC(=O)[C@@H](NC(=O)CNC(=O)[C@@H](N)CCC(=O)O)[C@@H](C)O)[C@@H](C)CC)C(=O)N[C@@H](C)C(=O)N[C@@H](CCSC)C(=O)N[C@@H](CC(=O)O)C(=O)N[C@@H](CCCCN)C(=O)N[C@H](C(=O)N[C@@H](Cc1c[nH]cn1)C(=O)N[C@@H](CCC(N)=O)C(=O)N[C@@H](CCCCNC(=O)COCCOCCNC(=O)COCCOCCNC(=O)CC[C@H](NC(=O)CCCCCCCCCCCCCCCCC(=O)O)C(=O)O)C(=O)N[C@@H](CC(=O)O)C(=O)N[C@@H](Cc1ccccc1)C(=O)N[C@H](C(=O)N[C@@H](CC(N)=O)C(=O)N[C@@H](Cc1c[nH]c2ccccc12)C(=O)N[C@@H](CC(C)C)C(=O)N[C@@H](CC(C)C)C(=O)N[C@@H](C)C(=O)N[C@@H](CCC(N)=O)C(=O)N[C@@H](CCCCN)C(=O)NCC(=O)N[C@@H](CCCCN)C(=O)N[C@@H](CCCCN)C(=O)N[C@@H](CC(N)=O)C(=O)N[C@@H](CC(=O)O)C(=O)N[C@@H](Cc1c[nH]c2ccccc12)C(=O)O)C(C)C)[C@@H](C)CC
  cAMP agonism % Emax: 0%
  cAMP antagonism: 126 nM
  cAMP antagonism % inhib: 86%
  cAMP antagonism pIC50: 6.9

## TFISDYK([γGlu-γGlu-C18])IAMDKIHQQDFVNWLLAQKGKKNDW-OH [AT561]
  cAMP agonism % Emax: 0%
  cAMP antagonism: 11.2 nM
  cAMP antagonism % inhib: 97%
  cAMP antagonism pIC50: 8

## TFISDYK([AEEA-AEEA-γGlu-C18])IAMDKIHQQDFVNWLLAQKGKKNDW-OH [AT560]
  cAMP antagonism: 23.3 nM
  cAMP antagonism % inhib: 100%
  cAMP antagonism pIC50: 7.6

B5: AT631 (peptide)
peptide: EGTFISDYSIAMDKIK(C16 diacid)QQDFVNWLLAQKPSSGAPPPS-OH
modifications: N-terminus assumed
SMILES: CC[C@H](C)[C@H](NC(=O)[C@H](CO)NC(=O)[C@H](Cc1ccc(O)cc1)NC(=O)[C@H](CC(=O)O)NC(=O)[C@H](CO)NC(=O)[C@@H](NC(=O)[C@H](Cc1ccccc1)NC(=O)[C@@H](NC(=O)CNC(=O)[C@@H](N)CCC(=O)O)[C@@H](C)O)[C@@H](C)CC)C(=O)N[C@@H](C)C(=O)N[C@@H](CCSC)C(=O)N[C@@H](CC(=O)O)C(=O)N[C@@H](CCCCN)C(=O)N[C@H](C(=O)N[C@@H](CCCCNC(=O)CCCCCCCCCCCCCCC(=O)O)C(=O)N[C@@H](CCC(N)=O)C(=O)N[C@@H](CCC(N)=O)C(=O)N[C@@H](CC(=O)O)C(=O)N[C@@H](Cc1ccccc1)C(=O)N[C@H](C(=O)N[C@@H](CC(N)=O)C(=O)N[C@@H](Cc1c[nH]c2ccccc12)C(=O)N[C@@H](CC(C)C)C(=O)N[C@@H](CC(C)C)C(=O)N[C@@H](C)C(=O)N[C@@H](CCC(N)=O)C(=O)N[C@@H](CCCCN)C(=O)N1CCC[C@H]1C(=O)N[C@@H](CO)C(=O)N[C@@H](CO)C(=O)NCC(=O)N[C@@H](C)C(=O)N1CCC[C@H]1C(=O)N1CCC[C@H]1C(=O)N1CCC[C@H]1C(=O)N[C@@H](CO)C(=O)O)C(C)C)[C@@H](C)CC
  cAMP agonism % Emax: 0%

B6: AT546 (peptide)
peptide: EGTFISDYSIAMDKIK([AEEA-AEEA-γGlu-Stearoyl])QQDFVNWLLAQKGKKNDW-OH
modifications: N-terminus assumed
SMILES: CCCCCCCCCCCCCCCCCC(=O)N[C@@H](CCC(=O)NCCOCCOCC(=O)NCCOCCOCC(=O)NCCCC[C@H](NC(=O)[C@@H](NC(=O)[C@H](CCCCN)NC(=O)[C@H](CC(=O)O)NC(=O)[C@H](CCSC)NC(=O)[C@H](C)NC(=O)[C@@H](NC(=O)[C@H](CO)NC(=O)[C@H](Cc1ccc(O)cc1)NC(=O)[C@H](CC(=O)O)NC(=O)[C@H](CO)NC(=O)[C@@H](NC(=O)[C@H](Cc1ccccc1)NC(=O)[C@@H](NC(=O)CNC(=O)[C@@H](N)CCC(=O)O)[C@@H](C)O)[C@@H](C)CC)[C@@H](C)CC)[C@@H](C)CC)C(=O)N[C@@H](CCC(N)=O)C(=O)N[C@@H](CCC(N)=O)C(=O)N[C@@H](CC(=O)O)C(=O)N[C@@H](Cc1ccccc1)C(=O)N[C@H](C(=O)N[C@@H](CC(N)=O)C(=O)N[C@@H](Cc1c[nH]c2ccccc12)C(=O)N[C@@H](CC(C)C)C(=O)N[C@@H](CC(C)C)C(=O)N[C@@H](C)C(=O)N[C@@H](CCC(N)=O)C(=O)N[C@@H](CCCCN)C(=O)NCC(=O)N[C@@H](CCCCN)C(=O)N[C@@H](CCCCN)C(=O)N[C@@H](CC(N)=O)C(=O)N[C@@H](CC(=O)O)C(=O)N[C@@H](Cc1c[nH]c2ccccc12)C(=O)O)C(C)C)C(=O)O
  cAMP agonism % Emax: 0%
  cAMP antagonism: 12.6 nM
  cAMP antagonism % inhib: 95%
  cAMP antagonism pIC50: 7.9
